From the nanobody polyreactivity screen of Harvey et al. (2022)

Test: yeast display, Sf9 membrane polyspecificity reagent, FACS + sequencing; frameworks hold sequencing errors
Summary of the method: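 Nanobodies came from a synthetic yeast display library in Saccharomyces cerevisiae BJ5465, induced with galactose for 36–48 hours and stained for 1 hour at 4 °C with 10% biotinylated, detergent-solubilized Sf9 membrane reagent. Cells were enriched on streptavidin microbeads and then FACS-sorted, with low and high (top ~1%) gates set on anti-HA fluorescence for expression and streptavidin fluorescence for reagent binding. Each polyreactivity label reflects the gate a clone came from. Genes were amplified by colony PCR, sequenced by MiSeq 2 × 250 and filtered by CDR length.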

Row | Sequence | polyreactivity (PSR sort gate)
1 | QVQLVESGGGLVQAGGSLRLSCAASGSTFTYYAMGWYRQAPGKERELVAAISRRGGSTYYADSVKGRFTISRDNAKNTVYLQMNSLKPEDTAVYYCAAASHGRFYYWGQGTQVTVSS | high polyreactivity
2 | QVQLVESGGGLVQAGGSLRLSCAASGSTFTYYAMGWYRQAPGKERELVAAITGGGSTNYADSVKGRFTISRDNAKNTVYLQMNSLKPEDTAVYYCAARTARYYYGWRYTGEYGYWGQGTQVTVSS | high polyreactivity
3 | QVQLVESGGGLVQAGGSLRLSCAASGSTFTYYAMGWYRQAPGKERELVAAITRRGGSTYYADSVKGRFTISRDNAKNTVYLQMNSLIPEDTAVYYCAKSTQIRAYIWDPYRISTYGYWGQGTQVTVSS | high polyreactivity
4 | QVQLVESGGGLVQAGGSLRLSCAASGSTFTYYAMGWYRQAPGKERELVASISSTTGSTYYADSVKGRFTISRDNAKNTVYLQMNSLKPEDTAVYYCAAERVYPWYRYYYWGQGTQVTVSS | low polyreactivity
5 | QVQLVESGGGLVQAGGSLRLSCAASGSTFVANAMGWYRQAPGKERELVAAISFNRGGNTYYADSVKGRFTISRDNAKNTVYLQMNSLKPEDTAVYYCAARNSYGNWRYYYWGQGTQVTVSS | high polyreactivity
6 | QVQLVESGGGLVQAGGSLRLSCAASGSTFVDNDMGWYRQAPGKERELVAAAITARGGSTYYADSVKGRFTISRDNAKNTVYLQMNSLKPEDTAVYYCAAGRPGELDYWGQGTQVTVSS | low polyreactivity
7 | QVQLVESGGGLVQAGGSLRLSCAASGSTFVDYAMGWYRQAPGKERELVAAINSDGGGTYYADSVKGRFTISRDNAKNTVYLQMNSLKPEDTAVYYCNVEYEDYYAQRYGYDYWGQGTQVTVSS | low polyreactivity
8 | QVQLVESGGGLVQAGGSLRLSCAASGSTFVDYAMGWYRQAPGKERELVAGINGSGGSTYYADSVKGRFTISRDNAKNTVYLQMNSLKPEDTAVYYCAKDGSNRLALPAWDYNYWGQGTQVTVSS | low polyreactivity
9 | QVQLVESGGGLVQAGGSLRLSCAASGSTFVFYVMVWYRQAPGKERQLVAAITGSTTSTYYAVSVKGRFTISRDNAKNTVYLQMNSLKPEDTAVYYCAAEVLRGRGFGYWGQGTQVCVSS | high polyreactivity
10 | QVQLVESGGGLVQAGGSLRLSCAASGSTFVGNAMGWYRQAPVKERELVATISNSGGHTFYADSVKGRFTISRDNAKNTVYLQMNSLKPEDTAVYYCAASTSGAIRRDGYWGQGTQVTVSS | low polyreactivity
11 | QVQLVESGGGLVQAGGSLRLSCAASGSTFVGYAMGWYRQAPGKERELVASITRRGGSTYYADSVKGRFTISRDNAKNTVYLQMNSLKPEDTAVYYCATPLYKTATWRAYEYWGQGTQVTVSS | high polyreactivity
12 | QVQLVESGGGLVQAGGSLRLSCAASGSTFVGYAMGWYSPAPGKERELVADIDSIGGSTYYADSVKGRFTISRDYANNTVYLQINSLKPEDTAVFYCAARRFDTALVLYDYWGPGTQVTVSS | low polyreactivity
13 | QVQLVESGGGLVQAGGSLRLSCAASGSTFVGYAMVWYRQAPGKERELVAAISYSGGSTYYADSVKGRFTISRDNAKNTVYLQMNSLKPEDTAVYYCAAEWSRHYYSGPRYDSWGQGSQVTVSS | low polyreactivity
14 | QVQLVESGGGLVQAGGSLRLSCAASGSTFVGYTMGWYRQAPGKERELVASITSDGSTNYADSVKGRFTISRDNAKNTVYLQMNSLKREDTAVYYCNADWSSLYVGEFDYWGQGTQVTVSS | low polyreactivity
15 | QVQLVESGGGLVQAGGSLRLSCAASGSTFVGYVMGWYRQAPGKERELVAAITRSGTSTYYADSVKGRFTISRDNAKNTVYLQMNSLKPEDTAVYYCARRYVSSDYYYWGQGTQVTVSS | low polyreactivity
16 | QVQLVESGGGLVQAGGSLRLSCAASGSTFVHYAMGWYRQAPGKERELVAAINDGGSTHYADSVKGRFTISRDNAKNTVYLQMHSLKPEDTAVYYCAAEYVWYRYPDYWGAYDYWGQGTQVTVSS | low polyreactivity
17 | QVQLVESGGGLVQAGGSLRLSCAASGSTFVKNTMGWYRQAPGKERELVAAIRSSGGSTYYADSVKGRFTISRDNAKNTVYLQMNSLKPEDTAVYYCAAGRGPEGTDDSWGQGTQVTVSS | high polyreactivity
18 | QVQLVESGGGLVQAGGSLRLSCAASGSTFVKYAMGWYRQAPGKERELVAAINRSGASTYYADSVKGRFTISRDNAKNTVYLQMNSLKPEDTAVYYCAARFSWVGYYWGQGTQVTVSS | high polyreactivity
19 | QVQLVESGGGLVQAGGSLRLSCAASGSTFVKYAMGWYRQAPGKERELVAAITDGGGGTFYADSVKGRFTISRDNGLNTVYLQMNSLNPEDTAVFYCNVGVSSAEDFDYWGQGTQVTVSS | low polyreactivity
20 | QVQLVESGGGLVQAGGSLRLSCAASGSTFVKYVMGWYRQAPGKERELVAAISRSSVRTSYADSVKGRFTISRDNAKNTVYLQMNSLKPEDTAVYYCAAEYQYGGTTFDYWGQGTQVTVSS | high polyreactivity
21 | QVQLVESGGGLVQAGGSLRLSCAASGSTFVLNAMGWYRQAPGKERELVAAINLDSGNTNYADSVKGRFTISRDNAKNTVYLQMNSLKPEDTAVYYCNTDVKFGGTAYDYWGQGTQVTVSS | low polyreactivity
22 | QVQLVESGGGLVQAGGSLRLSCAASGSTFVLYAMGWDRQAPGKERELVAAISGGATTTYADSVKGRFTISRDNAKNTVYLQMNSLKPEDTAVYSCAADFSTFVVSGAAMDYWGQGTQVTVSS | low polyreactivity

Row | Sequence | polyreactivity (PSR sort gate)
23 | QVQLVESGGGLVQAGGSLRLSCAASGSTFVLYAMGWYRQAPGKERELVADITWSGGSTYYADSVKGRFTISRDNAMNTVYLLMNSLKPEDTAVYYCAARYPWVYYDFDYWGQGTQVTVSS | low polyreactivity
24 | QVQLVESGGGLVQAGGSLRLSCAASGSTFVLYAMGWYRQAPGKERELVAVISWSGGSTYYADSVKGRFTISRDNAKNTVYLQMNSLKPEDTAVYYCAKRYRVSYYPYADPYGYWGQGTQVTVSS | low polyreactivity
25 | QVQLVESGGGLVQAGGSLRLSCAASGSTFVLYANGWYRQAPGKERELVAASTRRGGDTYYADSVKGRFTISRDNATNTVYLQMNSLKPEDTAVDYCATDYTTYGRYYYWGQGTQVTVSS | low polyreactivity
26 | QVQLVESGGGLVQAGGSLRLSCAASGSTFVNNAMGWYRQAPGKERELVAAISKTGGRTRYADSVKGRFTISRDNAKNTVYLQMNSLKPEDTAVYYCAARYYGGGYNYWGQGTQVTVSS | high polyreactivity
27 | QVQLVESGGGLVQAGGSLRLSCAASGSTFVPNAMGWYRQAPGKERELVAAITVDGDDTYYADSVKGRFTISRDNAKNTVYLQMNSLKPEDTAVYYCAAEQDPWTSRYVFFASRYDYWGQGTQVTVSS | low polyreactivity
28 | QVQLVESGGGLVQAGGSLRLSCAASGSTFVPNAMGWYRQAPGKERELVATINYADSVKGRFTISRDNAKNTVYLQMNSLKPEDTAVYYCATETAVYLVWGTALDYWGQGTQVTVSS | low polyreactivity
29 | QVQLVESGGGLVQAGGSLRLSCAASGSTFVPNAMGWYRQAPGTERELVAAITVDGDDTYYADSVKGRFTISRDNAKNTVYFQMNSLKPEVTAVYYCKADPDVPFFSWLTGRGTYDYWGQGTQVTVSS | low polyreactivity
30 | QVQLVESGGGLVQAGGSLRLSCAASGSTFVPNDMGGYRQAPGKERELVAAISYSGGSTYYADSVKGRFTISRDNAKNTVYLQMNSLKPEDTAVYYCAADKYLGELDYWGQGTQVTVSS | low polyreactivity
31 | QVQLVESGGGLVQAGGSLRLSCAASGSTFVPNDMGWYRQAPGKERELVAAISYSGGSTYYADSVKGRFTISRDNAKNTVYLQMNSLKPEDTAVYYCAAEKYLGELDYWGQGTQVTVSS | low polyreactivity
32 | QVQLVESGGGLVQAGGSLRLSCAASGSTFVPNTMGWYRQAPGKERELVADITYSGGSTYYADSVKGRFTISRDNAKNTVYLQMNSLKPEDTAVYYCAAEGTTWYYDMDYWGQGTQVTVSS | low polyreactivity
33 | QVQLVESGGGLVQAGGSLRLSCAASGSTFVPYPMGWYRQAPGKERELVAAISSTGGSTYYADSVKGRFTISRDNAKNTVYLQMNSLKPEDNAVYYCNALAKIRYGQINKGYYRGQGTQVTVSS | high polyreactivity
34 | QVQLVESGGGLVQAGGSLRLSCAASGSTFVQYTMGWYRQAPGKERELVAVITGGDGSTYYADSVKGRFTISRDNAKNTVYLLMNSLKPEDTAVYYCNADVYDYLRGGYEFDYWGQGTQVTVSS | low polyreactivity
35 | QVQLVESGGGLVQAGGSLRLSCAASGSTFVRNAMGWYRQAPGKERELVAAISGSGSRTYYADSVKGRFTISRDNAKNTVYLQMNSLKPEDTAVYYCAARITAHEYDYWGQGTQVTVSS | high polyreactivity
36 | QVQLVESGGGLVQAGGSLRLSCAASGSTFVRNAMGWYRQAPGKERELVAAISTRGGSTSYADSVKGRFTISRDNAKNTVYLQMNCLKPEDTAVYYCAKVHAYSQGIRHGYWGQGTQVTVSS | low polyreactivity
37 | QVQLVESGGGLVQAGGSLRLSCAASGSTFVRNAMGWYRQAPGKERELVAGISTGDKTYYADSVKGRFTISRDNAKNTVYLQMNSLKPEDTAVYYCAASVGTYQTATLDYDSWGQGTQVTVSS | low polyreactivity
38 | QVQLVESGGGLVQAGGSLRLSCAASGSTFVRNAMGWYRQAPGKERELVAGISTGDNTYYADSVKGRFTISRDNAKNTVYLQMNSLKPEDTAVDYCNATKDFSFGLDYWGQGTQVTVSS | low polyreactivity
39 | QVQLVESGGGLVQAGGSLRLSCAASGSTFVRNAMGWYRQPPGKDRELVAAISWRGGSTYYADTVKGRFTISRDNAKNTVYLQMNSLKPEDTAVYYCNKVGTWQGPYDYWGQGTQVTVSS | high polyreactivity
40 | QVQLVESGGGLVQAGGSLRLSCAASGSTFVRYAMGWYRQAPGKERELVAAIRGGGGTYYADSVKGRFTISRDNAKNTVYLQMNSLKPVDTAVYYCAADTYYYYWFAGYTEYDYWGQGTQVTVSS | low polyreactivity
41 | QVQLVESGGGLVQAGGSLRLSCAASGSTFVSNAMGWDRQAPGKERELVAAISSSGGRTSYADSEKGRFTISRDNAKNTVYLQMTSPKPEDTAVYYCAARFKSVDYVQYYYWGQGTQVTVSS | low polyreactivity
42 | QVQLVESGGGLVQAGGSLRLSCAASGSTFVSNAMGWYRQAPGKERELVAAISKGDGNTYYADSVKGRFTISRDNAKNTVYLQMNSLKPEDTAVYYCAATYHYYSRWYDYWGQGTQVTVSS | high polyreactivity
43 | QVQLVESGGGLVQAGGSLRLSCAASGSTFVSYAMGWYRQAPGKESELVAGISWSGTRTYYADSVKGRFTISRDNAKNTVYLQMNSLKPEDTAVYYCAARDSSYNWYGYWGQGTQVTVSS | high polyreactivity
